According to PMC6386680 (Proceedings of the National Academy of Sciences of the …, 2019):

Experiments:
[1] = target: Gal-3 CRD (trGal-3) (Homo sapiens, UniProt P17931); experiment: hydrogen-deuterium exchange mass spectrometry; type: binding; conditions: absence vs presence of lactose; canonical site
[2] = target: Gal-3–8S–Gal-1 (covalently connected heterodimer, Gal-3 CRD, 33-aa Gal-8 linker, Gal-1 CRD) (human); experiment: SAXS
[3] = target: Gal-3–8S–Gal-1 (covalently connected heterodimer, Gal-3 CRD, 33-aa Gal-8 linker, Gal-1 CRD) (human); experiment: SEC

Chain of Gal-3 CRD (trGal-3) (P17931 108-250 limits assumed): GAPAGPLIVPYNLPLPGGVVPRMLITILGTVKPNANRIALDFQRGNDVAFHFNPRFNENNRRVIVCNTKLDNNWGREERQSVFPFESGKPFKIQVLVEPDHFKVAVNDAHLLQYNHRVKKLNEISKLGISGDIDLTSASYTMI

| stoichiometry N [2] | stoichiometry N [3] | Molecule | hydrogen-deuterium exchange mass spectrometry [1] |
| --- | --- | --- | --- |
| – | – | OC[C@H]1O[C@@H](O[C@H]2[C@H](O)[C@@H](O)C(O)O[C@@H]2CO)[C@H](O)[C@@H](O)[C@H]1O (stereo partly drawn) [Lac] | significantly decreased deuterium uptake was found in the region of the canonical binding site |
| 2 | 2 | Gal-3–8S–Gal-1 (covalently connected heterodimer, Gal-3 CRD, 33-aa Gal-8 linker, Gal-1 CRD) | – |
